# Results taken from patent US9193755B1, “TFEB variants and uses thereof” (Fondazione Telethon, priority 2011, dated 2015).
# Positions count from the first letter of the chain named. Names may count otherwise.
# B1: TFEB(S142A): TFEB variant with serine 142 mutated to alanine (protein, UniProt P19484 1-476, looked up, variant S142A)
# Transcription factor EB: MASRIGLRMQLMREQAQQEEQRERMQQQAVMHYMQQQQQQQQQQLGGPPTPAINTPVHFQSPPPVPGEVLKVQSYLENPTSYHLQQSQHQKVREYLSETYGNKFAAHISPAQGSPKPPPAASPGVRAGHVLSSSAGNSAPNAPMAMLHIGSNPERELDDVIDNIMRLDDVLGYINPEMQMPNTLPLSSSHLNVYSSDPQVTASLVGVTSSSCPADLTQKRELTDAESRALAKERQKKDNHNLIERRRRFNINDRIKELGMLIPKANDLDVRWNKGTILKASVDYIRRMQKDLQKSRELENHSRRLEMTNKQLWLRIQELEMQARVHGLPTTSPSGMNMAELAQQVVKQELPSEEGPGEALMLGAEVPDPEPLPALPPQAPLPLPTQPPSPFHHLDFSHSLSFGGREDEGPPGYPEPLAPGHGSPFPSLSKKDLDLMLLDDSLLPLASDPLLSTMSPEASKASSRRSSFSMEEGDVL
# modifications: 3xFlag tag
# notes: TFEB variant with serine 142 mutated to alanine
# B2: TFEB S142D: phospho-mimetic mutant of TFEB (protein, UniProt P19484 1-476, looked up, variant S142D)
# Transcription factor EB: B1 Transcription factor EB with A142D
# modifications: 3xFlag tag
# B3: TFEB: transcription factor EB, Seq. Id No. 2, overexpressed from plasmid, lentivirus or stable clone (protein, listed as Homo sapiens)
# chain: B1 Transcription factor EB with A142S
# B4: S211A: TFEB with serine-to-alanine mutation at position 211 (protein, UniProt P19484 1-476, looked up, variant S211A)
# Transcription factor EB: B1 Transcription factor EB with A142S, S211A
# Legend:
# HeLa cells [1] = experiment: Subcellular localization and mobility of mutated TFEB-3xFlag in HeLa cells; format: cell-based, human; conditions: for TFEB subcellular localization of serine-to-alanine mutants: HeLa cells, Flag immunostaining
# Method: Cells were transiently transfected with DNA plasmids pRK5-mycPAT1, pCEP4-TFEB-his, pC1G2-TFEB, and p3 x FLAG-CMVTFEB using lipofectamine2000 or LTX (Invitrogen) according to the protocol from manufacturer. Site-direct mutagenesis was performed according to the manufacturer instructions (Stratagene) verifying the correct mutagenesis by sequencing.
# Cells were seeded at 50% of confluence in 6 well dishes and serum starved overnight (ON). Normal medium was added the following day either in presence of DMSO or kinase inhibitors. Subcellular fractionation was carried out as previously reported. Briefly, cells were lysed in 0.5 Triton X-100 lysis buffer (50 mM Tris-HCl, 0.5% triton, 137.5 mM NaCl, 10% glycerol, 5 mM EDTA supplemented with fresh protease and phosphatase inhibitors. Supernatant represented cytosolic fraction while nuclear pellet was washed twice and lysed in 0.5 Triton X-100 buffer 0.5% SDS and sonicated.
# TFEB target genes = experiment: qPCR of TFEB target genes after transfection with normal and mutant TFEB plasmids; format: cell-based, human; conditions: 24 h post-transfection, compared to TFEB(WT), TFEB(S332A) and TFEB(S402A)
# Excerpt: (§1) Asterisks in the graph indicate that the P-value was <0.05.
# HeLa cells [2] = experiment: Autophagosome number / LC3II level in HeLa cells; format: cell-based, human
# Excerpt: Cells or tissues were solubilized in RIPA buffer supplemented with protease (ROCHE) and Phosphatase (SIGMA) inhibitors. From 10 to 30 micrograms were loaded on 4-12% Bis-Tris gel (NUPAGE, Invitrogen), transferred to PVDF membranes and analyzed by western blot using the ECL method (Pierce). The following antibodies were used: LC3 (Novus Biological), FLAG, b-ACTIN, TUBULIN (SIGMA), HA (Covance), H3, ERK1/2, p-ERK1/2, p-AKT, p-70S6K (Cell Signaling), ERK2 (Santa Cruz). Protein levels were quantified by using ImageJ software analysis.
# [3] = test system: MEFs, NSCs, HeLa, and COS-7 cells; experiment: Release of lysosomal enzymes in the culture medium; format: cell-based; conditions: TFEB overexpression; acid phosphatase, beta-galactosidase, beta-hexosaminidase
# Method: Lysosomal enzymes acid phosphatase, beta-galactosidase, and beta-hexosaminidaseactivities were measured using the appropriate fluorimetric or colorimetric substrates. SGSH activity was measured following protocols described in Fraldi et al., Hum Mol Gen 2007 (33).
# long-lived proteins = experiment: Degradation of long-lived proteins; format: cell-based; conditions: TFEB overexpression
# Method: Sub-confluent cells were incubated with L-U^14C-serine for 20 h and chased for 1 h with cold media to degrade short-lived proteins. Subsequently cells were incubated with either normal media or starvation media (eventually in the presence of 3-MA) for 4 h. The rate of long-lived protein degradation was calculated from the ratio of soluble radioactivity in the media to that insoluble in the acid-precipitable cell pellet.
# LSDs = conditions: TFEB overexpression (45); cited from earlier work
# [4] = test system: HeLa cells stably expressing GFP-mRFP-LC3; experiment: RFP-GFP tandem tagged LC3 autophagosome-lysosome fusion assay; format: cell-based, human; conditions: TFEB overexpressing cells compared to control cells
# [5] = test system: mouse embryonic fibroblast (MEFs); experiment: Electron microscopy of MEFs infected with lentivirus overexpressing TFEB; format: cell-based
# Method: Control and TFEB-overexpressing cells were washed with PBS, and fixed in 1% glutaraldehyde dissolved in 0.2 M Hepes buffer (pH 7.4) for 30 min at room temperature. The cells were then postfixed for 2 h in OsO4. After dehydration in graded series of ethanol, the cells were embedded in Epon 812 (Fluka) and polymerized at 60° C. for 72 h. Thin sections were cut at the Leica EM UC6, counterstained with uranyl acetate and lead citrate. EM images were acquired from thin sections using a Philips Tecnai-12 electron microscope equipped with an ULTRA VIEW CCD digital camera (Philips, Eindhoven, The Netherlands). Quantification of vacuolization was performed using the AnalySIS software (Soft Imaging Systems GmbH, Munster, Germany). Selection of cells for quantification was based on their suitability for stereologic analysis, i.e. only cells sectioned through their central region (detected on the basis of the presence of Golgi membranes) were analyzed.
# [6] = test system: autophagy-related genes in HeLa cells; experiment: qPCR of autophagy-related genes in TFEB stable overexpressing HeLa cells; format: cell-based, human; conditions: TFEB stable overexpression
# Excerpt: as §1
molecule,measurement,setting,value
B1,TFEB subcellular localization of serine-to-alanine mutants,HeLa cells [1],constitutive nuclear localization
same,nuclear localization of mutant TFEB,"HeLa cells [1]; compared to TFEB(WT), TFEB(S332A) and TFEB(S402A)",significantly increased nuclear localization
same,expression levels of TFEB target genes,TFEB target genes,increased expression levels
same,"induction of the autophagic/lysosomal system (autophagosomes, lysosomes, autophagolysosomes)",HeLa cells [2]; compared to wt TFEB,stronger induction
B2,translocation into the nucleus upon nutrient starvation,HeLa cells [1]; nutrient starvation,unable to translocate into the nucleus
B3,release of lysosomal enzymes in the culture medium,[3],increases the release of lysosomal enzymes
same,degradation of long-lived proteins,long-lived proteins,enhanced
same,substrate clearance and cellular vacuolization in LSDs,LSDs,able to promote substrate clearance and to rescue cellular vacuolization
same,number of autophagolysosomes,[4],higher
same,number of autophagosomes by electron microscopy,[5],An increase in the number of autophagosomes
same,number of autophagosomes (LC3 marker),HeLa cells [2]; stable TFEB overexpression in HeLa cells,increased significantly
same,AKT1 FOLD INCREASE,[6],1.2 fold
same,AMBRA1 FOLD INCREASE,[6],1.2 fold
same,APP FOLD INCREASE,[6],1.4 fold
same,ARSA FOLD INCREASE,[6],1.3 fold
same,ATG3 FOLD INCREASE,[6],1.2 fold
same,ATG4A FOLD INCREASE,[6],1.2 fold
same,ATG4B FOLD INCREASE,[6],1.3 fold
same,ATG4C FOLD INCREASE,[6],1.1 fold
same,ATG4D FOLD INCREASE,[6],1.6 fold
same,ATG5 FOLD INCREASE,[6],1.2 fold
same,ATG7 FOLD INCREASE,[6],1.2 fold
same,ATG9A FOLD INCREASE,[6],1.1 fold
same,ATG9B FOLD INCREASE,[6],5.6 fold
same,ATG10 FOLD INCREASE,[6],1.1 fold
same,ATG12 FOLD INCREASE,[6],1.2 fold
same,ATG16L1 FOLD INCREASE,[6],−1.2 fold
same,ATG16L2 FOLD INCREASE,[6],1.1 fold
same,BAD FOLD INCREASE,[6],1.0 fold
same,BAK1 FOLD INCREASE,[6],1.4 fold
same,BAX FOLD INCREASE,[6],1.2 fold
same,BCL2 FOLD INCREASE,[6],1.5 fold
same,BECN1 FOLD INCREASE,[6],1.2 fold
same,BID FOLD INCREASE,[6],1.2 fold
same,BNIP3 FOLD INCREASE,[6],1.1 fold
same,CLN3 FOLD INCREASE,[6],1.5 fold
same,CXCR4 FOLD INCREASE,[6],1.3 fold
same,DRAM FOLD INCREASE,[6],1.8 fold
same,EIF2AK3 FOLD INCREASE,[6],1.4 fold
same,EIF4G1 FOLD INCREASE,[6],1.3 fold
same,FAM176A FOLD INCREASE,[6],1.6 fold
same,GAA FOLD INCREASE,[6],1.3 fold
same,GABARAP FOLD INCREASE,[6],1.1 fold
same,GABARAPL1 FOLD INCREASE,[6],1.0 fold
same,GABARAPL2 FOLD INCREASE,[6],1.1 fold
same,HGS FOLD INCREASE,[6],−1.1 fold
same,HTT FOLD INCREASE,[6],1.0 fold
same,MAP1LC3A FOLD INCREASE,[6],1.1 fold
same,MAP1LC3B FOLD INCREASE,[6],1.2 fold
same,PIK3C3 FOLD INCREASE,[6],−1.2 fold
same,PIK3R4 FOLD INCREASE,[6],1.1 fold
same,PTEN FOLD INCREASE,[6],1.1 fold
same,RAB24 FOLD INCREASE,[6],1.2 fold
same,RGS19 FOLD INCREASE,[6],1.2 fold
same,SNCA FOLD INCREASE,[6],1.6 fold
same,SQSTM1 FOLD INCREASE,[6],2.4 fold
same,TP53 FOLD INCREASE,[6],1.1 fold
same,ULK1 FOLD INCREASE,[6],1.1 fold
same,UVRAG FOLD INCREASE,[6],1.8 fold
same,VPS11 FOLD INCREASE,[6],1.4 fold
same,VPS18 FOLD INCREASE,[6],1.4 fold
same,WIPI FOLD INCREASE,[6],2.5 fold
B4,TFEB subcellular localization of serine-to-alanine mutants,HeLa cells [1],constitutive nuclear localization
